Positions count from the first letter of the chain named.
Legend:
[1] = target: T1, D10 helicase (wild type) (Bacteriophage T5, UniProt P11107 1-450); test: EMSA with poly d(AT) competitor; no ATP/Mg2+; affinity near identical to Y20; bound but not unwound; EMSA: 0.1 nM DNA, 20 mM HEPES-NaOH pH 7.5, 135 mM NaCl, 0.1% NP40 alternative, 0.1 mg/ml BSA, 2 mM DTT, 1 mM EDTA, 10% glycerol, 22 °C, 20 min; footprinting the same with 10 nM DNA and no glycerol; conditions: protein: recombinant; tags: GST tag removed with thrombin; label: 5'-32P; three-way Y-junction, three 20 bp arms
T1 sequence: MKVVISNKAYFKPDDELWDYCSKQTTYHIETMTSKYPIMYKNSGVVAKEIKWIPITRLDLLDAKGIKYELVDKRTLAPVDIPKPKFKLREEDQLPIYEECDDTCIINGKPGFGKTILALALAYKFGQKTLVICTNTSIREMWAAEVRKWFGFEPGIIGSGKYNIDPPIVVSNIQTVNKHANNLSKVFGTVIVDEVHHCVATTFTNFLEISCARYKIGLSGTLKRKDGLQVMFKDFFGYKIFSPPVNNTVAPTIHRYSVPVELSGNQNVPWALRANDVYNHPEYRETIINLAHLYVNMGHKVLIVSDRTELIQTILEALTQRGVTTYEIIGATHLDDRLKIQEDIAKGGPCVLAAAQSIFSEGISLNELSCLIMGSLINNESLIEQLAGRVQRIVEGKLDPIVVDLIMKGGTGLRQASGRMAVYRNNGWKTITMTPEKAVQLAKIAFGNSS

[2] = target: T1, D10 helicase (wild type); test: EMSA with nonspecific competitor DNA; no ATP/Mg2+, 1 mM EDTA; EMSA: 0.1 nM DNA, 20 mM HEPES-NaOH pH 7.5, 135 mM NaCl, 0.1% NP40 alternative, 0.1 mg/ml BSA, 2 mM DTT, 1 mM EDTA, 10% glycerol, 22 °C, 20 min; footprinting the same with 10 nM DNA and no glycerol; conditions: protein: recombinant; tags: GST tag removed with thrombin; label: 5'-32P; three-way Y-junction, three 20 bp arms, nick in strand A at the junction
[3] = target: T1, D10 helicase (wild type); test: EMSA; EMSA: 0.1 nM DNA, 20 mM HEPES-NaOH pH 7.5, 135 mM NaCl, 0.1% NP40 alternative, 0.1 mg/ml BSA, 2 mM DTT, 1 mM EDTA, 10% glycerol, 22 °C, 20 min; footprinting the same with 10 nM DNA and no glycerol; conditions: protein: recombinant; tags: GST tag removed with thrombin; label: 5'-32P; four-way non-homologous Holliday junction, four 20 bp arms
[4] = target: T2, D10 R389N (Bacteriophage T5, UniProt P11107 1-450, R389N); test: EMSA; binding equivalent to wild type; not unwound; EMSA: 0.1 nM DNA, 20 mM HEPES-NaOH pH 7.5, 135 mM NaCl, 0.1% NP40 alternative, 0.1 mg/ml BSA, 2 mM DTT, 1 mM EDTA, 10% glycerol, 22 °C, 20 min; footprinting the same with 10 nM DNA and no glycerol; conditions: protein: recombinant; tags: GST tag removed with thrombin; label: 5'-32P; four-way non-homologous Holliday junction, four 20 bp arms
T2 sequence: T1 sequence with R389N

[5] = target: T1, D10 helicase (wild type); test: EMSA with nonspecific competitor DNA; affinity similar to Y20; EMSA: 0.1 nM DNA, 20 mM HEPES-NaOH pH 7.5, 135 mM NaCl, 0.1% NP40 alternative, 0.1 mg/ml BSA, 2 mM DTT, 1 mM EDTA, 10% glycerol, 22 °C, 20 min; footprinting the same with 10 nM DNA and no glycerol; conditions: protein: recombinant, tags: GST tag removed with thrombin, label: 5'-32P, three-way Y-junction, three 20 bp arms
[6] = target: T1, D10 helicase (wild type); test: EMSA with poly d(AT) competitor; no ATP/Mg2+; affinity near identical to Y20; EMSA: 0.1 nM DNA, 20 mM HEPES-NaOH pH 7.5, 135 mM NaCl, 0.1% NP40 alternative, 0.1 mg/ml BSA, 2 mM DTT, 1 mM EDTA, 10% glycerol, 22 °C, 20 min; footprinting the same with 10 nM DNA and no glycerol; conditions: protein: recombinant; tags: GST tag removed with thrombin; label: 5'-32P; three-way Y-junction, three 20 bp arms
[7] = target: T1, D10 helicase (wild type); test: EMSA with poly d(AT) competitor; no ATP/Mg2+; 0.1 nM DNA, 0.4 nM D10 (all substrate bound); EMSA: 0.1 nM DNA, 20 mM HEPES-NaOH pH 7.5, 135 mM NaCl, 0.1% NP40 alternative, 0.1 mg/ml BSA, 2 mM DTT, 1 mM EDTA, 10% glycerol, 22 °C, 20 min; footprinting the same with 10 nM DNA and no glycerol; conditions: protein: recombinant; tags: GST tag removed with thrombin; label: 5'-32P on one strand; three-way Y-junction, three 20 bp arms

B1: Y20'' (dsDNA)
DNA 1: TTCGAAACGTGCGGAATCATACGGGCGGCTTAACGGTGAT
DNA 2: ATCACCGTTAAGCCGCCCGTCGACCAAGAGCTCGGTACCC
DNA 3: GGGTACCGAGCTCTTGGTCGATGATTCCGCACGTTTCGAA
- binding result [1]: binds

B2: Y20-3 (oligo A nicked) (dsDNA)
DNA 1: TTCGAAACGTGCGCGCCCAT
DNA 2: ACGCCAAGCTTAACGGTGAT
DNA 3: ATCACCGTTAAGCTTGGCGTCGAATTCGAGCTCGGTACCC
DNA 4: GGGTACCGAGCTCGAATTCGATGGGCGCGCACGTTTCGAA
- binding signal [2]: ~2 fold lower affinity than Y20

B3: NHJ20 (dsDNA)
DNA 1: TTCGAAACGTGCGCGCCCATACGCCAAGCTTAACGGTGAT
DNA 2: B2 DNA 3
DNA 3: GGGTACCGAGCTCGAATTCGTGGGCGGTGCCCAACGCATA
DNA 4: TATGCGTTGGGCACCGCCCAATGGGCGCGCACGTTTCGAA
- binding result [3]: binds
- binding result [4]: binds

B4: Y20-1 (oligo C nicked) (dsDNA)
DNA 1: B3 DNA 1
DNA 2: B2 DNA 3
DNA 3: GGGTACCGAGCTCGAATTCG
DNA 4: ATGGGCGCGCACGTTTCGAA
- binding result ([5]; nick in strand C at the junction): binds

B5: Y20-2 (oligo B nicked) (dsDNA)
DNA 1: B3 DNA 1
DNA 2: B2 DNA 4
DNA 3: ATCACCGTTAAGCTTGGCGT
DNA 4: CGAATTCGAGCTCGGTACCC
- binding result ([5]; nick in strand B at the junction): binds

B6: Y20' (dsDNA)
DNA 1: B3 DNA 1 with C18T, A19C, T20G, C22T
DNA 2: B2 DNA 3 with G19A, C21A, G22C, A23G
DNA 3: GGGTACCGAGCTCGAATCGTCGAGGCGCGCACGTTTCGAA
- binding result [6]: binds

B7: Y20 (dsDNA)
DNA 1: B3 DNA 1
DNA 2: B2 DNA 3
DNA 3: B2 DNA 4
- binding result [7]: binds
